Experimental findings from patent publication US20110312505A1 (University of Texas, published 2011) are described below.

The target in test [1] is T1, human complement protein C1s (human, UniProt P09871 16-688).
T1 construct: Purified protein, bought; coated on ELISA plates, amine-coupled to a CM5 chip, or native in human serum (immunoprecipitation); also called human complement serine protease
T1 sequence (looked up): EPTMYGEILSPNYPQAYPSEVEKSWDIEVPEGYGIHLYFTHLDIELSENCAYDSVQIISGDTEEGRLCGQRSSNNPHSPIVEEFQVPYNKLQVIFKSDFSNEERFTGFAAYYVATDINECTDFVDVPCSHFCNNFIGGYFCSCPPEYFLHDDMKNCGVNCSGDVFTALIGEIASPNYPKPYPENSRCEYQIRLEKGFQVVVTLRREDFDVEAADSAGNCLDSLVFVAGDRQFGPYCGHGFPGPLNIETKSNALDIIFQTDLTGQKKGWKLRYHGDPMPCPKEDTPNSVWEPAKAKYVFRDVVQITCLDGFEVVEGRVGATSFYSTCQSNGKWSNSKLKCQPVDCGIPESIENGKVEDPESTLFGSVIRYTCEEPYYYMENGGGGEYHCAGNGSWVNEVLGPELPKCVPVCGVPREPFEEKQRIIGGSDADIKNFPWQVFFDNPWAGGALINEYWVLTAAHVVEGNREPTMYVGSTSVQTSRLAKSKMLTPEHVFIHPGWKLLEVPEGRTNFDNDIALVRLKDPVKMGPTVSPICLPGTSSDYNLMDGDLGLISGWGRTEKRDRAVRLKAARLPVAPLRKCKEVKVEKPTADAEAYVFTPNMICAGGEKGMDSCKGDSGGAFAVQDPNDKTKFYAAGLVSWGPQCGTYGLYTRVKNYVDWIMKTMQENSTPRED
Put plainly: ELISA, E. coli whole cell lysate with scFv from combinatorial library.

Test [2] addresses T1, human complement protein C1s. Put plainly: ELISA, antigen-coated plate, titration of purified IgG, anti-human Fc-HRP. On the procedure:
(§1) Purified IgGs were added to the plate at various concentrations for 1.5 h and washed with PBS/0.05% Tween-20. A polyclonal antibody of goat anti-human Fc region conjugated HRP was used for detection and developed with TMB substrate and stopped with 2N H₂SO₄. The absorbance was measured at 450 nm with a 96 well spectrophotometer. A titration curve of purified IgGs was used to determine an approximate IC50 for binding (Table 8).

The target in test [3] is T2, human B cell regulator of IgH transcription (BRIGHT) (human, UniProt Q99856 1-593, limits assumed).
T2 construct: Recombinant, made in bacteria
T2 sequence (looked up): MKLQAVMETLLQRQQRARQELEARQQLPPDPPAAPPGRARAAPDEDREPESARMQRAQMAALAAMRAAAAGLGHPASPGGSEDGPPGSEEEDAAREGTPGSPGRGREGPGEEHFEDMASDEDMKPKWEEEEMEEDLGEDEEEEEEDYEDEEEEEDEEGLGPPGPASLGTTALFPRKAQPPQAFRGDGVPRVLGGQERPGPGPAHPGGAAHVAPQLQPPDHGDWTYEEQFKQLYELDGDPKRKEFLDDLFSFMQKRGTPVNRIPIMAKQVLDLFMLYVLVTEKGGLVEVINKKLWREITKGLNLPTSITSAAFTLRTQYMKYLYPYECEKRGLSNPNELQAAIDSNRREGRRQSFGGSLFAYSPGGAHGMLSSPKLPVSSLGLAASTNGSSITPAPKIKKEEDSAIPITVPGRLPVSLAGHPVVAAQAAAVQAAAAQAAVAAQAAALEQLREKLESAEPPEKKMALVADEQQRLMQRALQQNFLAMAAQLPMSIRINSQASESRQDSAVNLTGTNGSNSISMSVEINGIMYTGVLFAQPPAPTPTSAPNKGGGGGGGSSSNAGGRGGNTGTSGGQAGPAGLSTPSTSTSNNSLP
The test is described as above. The method, then: as §1

In test [4] the target is T1, human complement protein C1s. Put plainly: SPR (BIAcore 3000), C1s amine-coupled to CM5 chip, antibody injected, bivalent model. On the procedure: FIGS. 13A-13B. Kinetic binding analysis of purified anti-C1s IgGs by Surface Plasmon Resonance (Biacore). (FIG. 13A) Anti-C1s 2.1L-2.1HB was injected onto a chip with immobilized C1s at 25 nM, 50 nM, 100 nM or 200 nM and (FIG. 13B) As above for anti-C1s 2.3L-2.2H injected at 2.625 nM, 5.25 nM, 10.5 nM or 21 nM.
(§2) Surface Plasmon Resonance (Biacore) C1s was covalently immobilized on a CM5 chip (GE healthcare, NJ) at a level of approximately 200 response units via standard amine coupling chemistry as described in the manufacturer's protocol. BSA was similarly coupled for baseline correction. All kinetic analyses were performed at 25° C. in HBS-EP (10 mM HEPES, 150 mM NaCl, 50 μM EDTA, 0.005% P-20, pH 7.4) on a BIAcore 3000 (GE healthcare, NJ). Antibodies were injected over immobilized antigen at a flow rate of 50 μl/min or 100 μl/min and the chip was regenerated with a single 10s injection of 20 mM NaOH. Each sensogram was run in duplicate. Kinetic and equilibrium constants were determined by global fitting to a bivalent model using BIAevaluation software (GE healthcare, NJ).

Test [5] has the same target. As to the kind of experiment: SPR (Biacore), IgG on immobilized C1s.
Description: Antibodies were recombinantly expressed and purified as monomeric scFv fragments in E. coli and as full-length IgG antibodies in HEK 293F cells. […] Furthermore, the antibodies were suitable for functional assays, such as sandwich ELISA and immunoprecipitation of C1s from human serum (FIGS. 14-15).
as §2

B1: anti-C1s scFv 2.2L-2.2H (scFv)
scFv: DIVMTQSPASLAVSLGQRATISCRASESVDSYGNSFMHWYQQKPGQPPKLLIYRASNLESGIPARFSGSGSRTDFTLTINPVEADDVTTYYCQQSNEDPWTFGGGTKLEIKGGGGSGGGGSGGGGSGGGGSEVKLVESGGGFVKPGGSLKLSCAASGFTFSTYGMSWVRQTPEKRLEWVASISAGGTTYYSDSVKGRFTISRDNARNILYLQMSSLRSEDTAMYYCARWLLLAYWGQGTLVTSSA
notes: scFv in E. coli whole cell lysate; also called C1s-2 2L-2H
With B1, the “ELISA Signal (OD450 on antigen-coated wells relative to BSA-coated wells)” value in test [1] stood at 3.1 fold over BSA wells.

B2: anti-C1s scFv 2.3L-2.3H (scFv)
scFv: DIVMTQSPLTLTVTIGQPASISCKSSQSLLDSDGKTYLNWLLQRPGQSPKRLIYLVSKLDSGVPDRFTGSGSGTEFTLKTSRVEAEDLGVYYCWQGTHFPHFGGGTKLEIKGGGGSGGGGSGGGGSGGGGSQVQLQQSGTVLARPGASVKMSCKASGYTFTSYWMHWVKQRPGQGLEWIGAIYPGNSDTSYNQKFKGKAKLTAVTSTSTAYMELSSLTNEDSAVYYCTRSDGYYYFDYWGQGTTLTVSSA
notes: scFv in E. coli whole cell lysate; also called C1s-2 3L-3H
B2: the “ELISA Signal (OD450 on antigen-coated wells relative to BSA-coated wells)” value in test [1] is 8.8 fold over BSA wells.

B3: anti-C1s IgG 2.1L-2.1H (antibody, V domains shown)
VH: QVQLQQSGAELARPGASVKMSCKASGYTFTSYTMHWVKQRPGQGLEWIGYINPSSGYTNYNQKFKDKATLTADKSSSTANMQLSSLTSEDSAVYYCARSDRYDGYFDYWGQGTTLTVSS
VL: DVLMTQTPLSLPVSLGDQASISCRSSQSIVHSNGDTYLEWYLQKPGQSPKLLVYKLSNRFSGVPDRFSGSGSGTDFTLKISRVEAEDLGVYYCFQGSHVPLTFGAGTKLEIK
notes: also called C1s 2.1L-2.1H
Regarding B3, the “EC50 (half-maximal binding)” value in test [2] was 50 nM.

B4: anti-C1s scFv 2.3L-2.2H (scFv)
scFv: DIVMTQSPLTLTVTIGQPASISCKSSQSLLDSDGKTYLNWLLQRPGQSPKRLIYLVSKLDSGVPDRFTGSGSGTEFTLKTSRVEAEDLGVYYCWQGTHFPHFGGGTKLEIKGGGGSGGGGSGGGGSGGGGSEVKLVESGGGFVKPGGSLKLSCAASGFTFSTYGMSWVRQTPEKRLEWVASISAGGTTYYSDSVKGRFTISRDNARNILYLQMSSLRSEDTAMYYCARWLLLAYWGQGTLVTSSA
notes: scFv in E. coli whole cell lysate; also called C1s-2 3L-2H
As for B4, the “ELISA Signal (OD450 on antigen-coated wells relative to BSA-coated wells)” value in test [1] is 4.22 fold over BSA wells.

B5: anti-BRIGHT IgG 1.2L-1.1H (antibody, V domains shown)
VH: EVKLVESGGDLVKPGGSLKLSCAASGFTFSSYGMSWVRQTPDKRLEWVATISSGGSYTYYPDSVKGRFTISRDNAKNTLYLQMSSLKSEDTAMYYCARHDYGNYVDYWGQGTTLTVSS
VL: not shown
notes: Full-length IgG with human kappa and human IgG1 constant regions (pMAZ vectors, HEK293-F); also called BRIGHT 1.2L-1.1H
As for B5, the “EC50 (half-maximal binding)” value in test [3] was determined as 1000 nM.

B6: anti-C1s IgG 2.3L-2.3H (antibody, V domains shown)
VH: QVQLQQSGTVLARPGASVKMSCKASGYTFTSYWMHWVKQRPGQGLEWIGAIYPGNSDTSYNQKFKGKAKLTAVTSTSTAYMELSSLTNEDSAVYYCTRSDGYYYFDYWGQGTTLTVSS
VL: not shown
notes: Full-length IgG with human kappa and human IgG1 constant regions (pMAZ vectors, HEK293-F); also called C1s 2.3L-2.3H
As to B6, in test [2], the “EC50 (half-maximal binding)” value stood at 100 nM.

B7: anti-C1s IgG 2.3L-2.2H (antibody, V domains shown)
VH: EVKLVESGGGFVKPGGSLKLSCAASGFTFSTYGMSWVRQTPEKRLEWVASISAGGTTYYSDSVKGRFTISRDNARNILYLQMSSLRSEDTAMYYCARWLLLAYWGQGTLVTSSA
VL: not shown
notes: Full-length IgG with human kappa and human IgG1 constant regions (pMAZ vectors, HEK293-F); also called C1s 2.3L-2.2H; 2.3L-2.2H (IgG)
Turning to B7, in test [2], the “EC50 (half-maximal binding)” value is 0.43 nM. In test [4], this molecule came in with a Kd of 0.43 nM, a koff of 0.00019 s⁻¹ and a kon of 450000 M⁻¹ s⁻¹.

B8: anti-C1s IgG 2.2L-2.2H (antibody, V domains shown)
VH: EVKLVESGGGFVKPGGSLKLSCAASGFTFSTYGMSWVRQTPEKRLEWVASISAGGTTYYSDSVKGRFTISRDNARNILYLQMSSLRSEDTAMYYCARWLLLAYWGQGTLVTSSA
VL: DIVMTQSPASLAVSLGQRATISCRASESVDSYGNSFMHWYQQKPGQPPKLLIYRASNLESGIPARFSGSGSRTDFTLTINPVEADDVTTYYCQQSNEDPWTFGGGTKLEIK
notes: Full-length IgG made in HEK 293F cells; also called C1s 2.2L with 2.2H
As for B8, the Kd in test [5] is about 500 nM.
